Data on one molecule can be found in article PMC4344348, “Quantitative Analysis of Ligand-EGFR Interactions: A Platform for Screening Targeting Molecules” (PLoS ONE, 2015).

One may read the Kd as a measure of binding affinity in units of concentration.

The test deals with T1, Epidermal growth factor receptor (UniProt P00533 25-645).
T1 construct: Epidermal growth factor receptor (EGFR), bought from Sigma-Aldrich; Coupled by its amines to the dextran of a CM5 chip (about 12,000 RU) for both SPR and AFM; also called EGFR; source: bought: Sigma-Aldrich
The test can be described thus: SPR; Biacore X; EGFR amine-coupled to a CM5 chip, ligands flowed over; room temperature; running buffer PBS; flow 10 ul/min; regeneration 50 mM NaOH; channel without EGFR as control; EGF 0.25-4 uM, GE11 10-160 uM; KD from BIAEvaluation software. The note with it: both partners purified. On the technique in general: In SPR one partner is held on a chip, and binding of the other changes the refractive index at the surface.

B1: Peptide GE11 (peptide)
peptide: YHWYGYTPQNVI
notes: In solution for SPR; for AFM coupled to succinimide-modified silicon nitride tips; source: synthetic peptide, custom synthesized by Millipore
As to B1, the Kd is 459 µM.
